Target: PSGL-1/mIgG2b produced in CHO cells with FUT2 (Se gene) and α1,3 GalNAcT (A gene) (mouse)
Test: western blot, chemiluminescence volumes (Fluor-S Max MultImager), anti-A signal divided by anti-mIgG signal

Question: Which relative A epitope density (ratio of blood group A to mIgG reactivity), fold over PSGL-1/mIgG2b made in 293T cells with FUT2 and the A gene does the source give for “mouse anti-human blood group A all types (mIgM, Dako) (antibody)” here?
Answer: 3 fold
